The source of these data is PMC10877986 (mAbs, 2024).

Holding throughout (assay): SPR
The target in test [1] is T1, recombinant human PD-1 (Homo sapiens, UniProt Q15116).
For test [2], the target named is T1, recombinant human PD-1. This is another data set of the same source.
Test [3] concerns the target recombinant cynomolgus monkey PD-1 (Macaca fascicularis (cynomolgus monkey), UniProt B0LAJ3).
A further test addresses recombinant mouse PD-1 (Mus musculus, UniProt Q02242).

Like-named read-outs stand apart in the source and are kept apart here.

T1 sequence (Q15116 25-170): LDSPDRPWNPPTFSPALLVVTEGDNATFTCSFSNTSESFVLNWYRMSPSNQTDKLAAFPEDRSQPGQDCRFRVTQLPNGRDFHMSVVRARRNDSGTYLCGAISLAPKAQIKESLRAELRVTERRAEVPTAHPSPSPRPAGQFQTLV
recombinant mouse PD-1, sequence (Q02242 25-169): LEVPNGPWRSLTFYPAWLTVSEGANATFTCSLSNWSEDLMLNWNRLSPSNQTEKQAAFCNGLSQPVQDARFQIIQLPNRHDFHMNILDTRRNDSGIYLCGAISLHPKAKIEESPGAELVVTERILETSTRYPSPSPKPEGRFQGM

B1: h1340.CC (antibody, V domains shown)
VH: EQQLVESGGGVVQPGRSLRLSCAASGFSFSSTYWICWVRQAPGKGLEWIACIYAGSSGNTYYANWAKGRFTISKDSSSTTVFLQMNSLRAEDTAVYFCARAGGAGGGVYTLTRLDLWGQGTLVTVSS
VL: AAQLTQSPSSLSASVGDRVTITCQSSQSVYNNNDLAWYQQKPGKPPKLLIYTPSSLTSGVPSRFSGSGSGTDFTLTISSLQPEDFATYYCLGGYDDDSDNAFGGGTKVEIK
Usually Kd stands for the equilibrium constant for the complex coming apart. Consider B1, for which the Kd came out at 0.1 nM in the test with recombinant human PD-1 [1], 0.3 nM with recombinant human PD-1 [2], 0.42 nM in test [3] and 1.72 nM with recombinant mouse PD-1.

B2: h1340.SA.5 (antibody, V domains shown)
VH: EQQLVESGGGVVQPGRSLRLSCAASGFSFSSTYWISWVRQAPGKGLEWIAAIYLGSSGNTYYANWAKGRFTISKDSSSTTVFLQMNSLRAEDTAVYFCARAGGAGGGVYTLTRLDLWGQGTLVTVSS
VL: AAQLTQSPSSLSASVGDRVTITCQSSQSVYNNNDLAWYQQKPGKPPKLLIYTPSSLTSGVPSRFSGSGSGTDFTLTISSLQPEDFATYYCLGGYDDDSDNAFGGGTKVEIK
Turning to B2, the binding result in the test with recombinant human PD-1 [1] is given as “binds”.

B3: h1340.AA (antibody, V domains shown)
VH: EQQLVESGGGVVQPGRSLRLSCAASGFSFSSTYWIAWVRQAPGKGLEWIAAIYAGSSGNTYYANWAKGRFTISKDSSSTTVFLQMNSLRAEDTAVYFCARAGGAGGGVYTLTRLDLWGQGTLVTVSS
VL: AAQLTQSPSSLSASVGDRVTITCQSSQSVYNNNDLAWYQQKPGKPPKLLIYTPSSLTSGVPSRFSGSGSGTDFTLTISSLQPEDFATYYCLGGYDDDSDNAFGGGTKVEIK
As for B3, in the test with recombinant human PD-1 [1], the binding result is recorded as “binds”.

B4: h1340.SA (antibody, V domains shown)
VH: EQQLVESGGGVVQPGRSLRLSCAASGFSFSSTYWISWVRQAPGKGLEWIAAIYAGSSGNTYYANWAKGRFTISKDSSSTTVFLQMNSLRAEDTAVYFCARAGGAGGGVYTLTRLDLWGQGTLVTVSS
VL: AAQLTQSPSSLSASVGDRVTITCQSSQSVYNNNDLAWYQQKPGKPPKLLIYTPSSLTSGVPSRFSGSGSGTDFTLTISSLQPEDFATYYCLGGYDDDSDNAFGGGTKVEIK
In the case of B4, in the test with recombinant human PD-1 [1], the Kd was 0.7 nM. For the same molecule, the “fold decrease in affinity against h1340.CC” value with recombinant human PD-1 [2] is approximately 2.5 fold; in the test with recombinant mouse PD-1 it was approximately 4 fold. Besides, the “fold decrease in affinity against rbt1340” value in the test with recombinant human PD-1 [2] was 4 fold; in test [3] it was 6 fold.

B5: h1340.SA.6 (antibody, V domains shown)
VH: EQQLVESGGGVVQPGRSLRLSCAASGFSFSSTYWISWVRQAPGKGLEWIAAIYAGSSGNTYYANWAKGRFTISKDSSSTTVFLQMNSLRAEDTAVYFCARSGGAGGGVYTLTRLDLWGQGTLVTVSS
VL: AAQLTQSPSSLSASVGDRVTITCQSSQSVYNNNDLAWYQQKPGKPPKLLIYTPSSLTSGVPSRFSGSGSGTDFTLTISSLQPEDFATYYCLGGYDDDSDNAFGGGTKVEIK
On to B5, for which, in the test with recombinant human PD-1 [1], the binding result is “binds”.

B6: h1340.SA.3 (antibody, V domains shown)
VH: EQQLVESGGGVVQPGRSLRLSCAASGFSFDSTYWISWVRQAPGKGLEWIAAIYAGSSGNTYYANWAKGRFTISKDSSSTTVFLQMNSLRAEDTAVYFCARAGGAGGGVYTLTRLDLWGQGTLVTVSS
VL: AAQLTQSPSSLSASVGDRVTITCQSSQSVYNNNDLAWYQQKPGKPPKLLIYTPSSLTSGVPSRFSGSGSGTDFTLTISSLQPEDFATYYCLGGYDDDSDNAFGGGTKVEIK
As for B6, the binding result with recombinant human PD-1 [1] is “binds”.
